Four substances from article PMC12646664 can be followed below.

The experiment deals with Gα-interacting vesicle-associated protein (GIV), endogenous (human (endogenous in THP1)) (UniProt Q3V6T2).
Sequence of UniProt Q3V6T2 (Q3V6T2 whole entry): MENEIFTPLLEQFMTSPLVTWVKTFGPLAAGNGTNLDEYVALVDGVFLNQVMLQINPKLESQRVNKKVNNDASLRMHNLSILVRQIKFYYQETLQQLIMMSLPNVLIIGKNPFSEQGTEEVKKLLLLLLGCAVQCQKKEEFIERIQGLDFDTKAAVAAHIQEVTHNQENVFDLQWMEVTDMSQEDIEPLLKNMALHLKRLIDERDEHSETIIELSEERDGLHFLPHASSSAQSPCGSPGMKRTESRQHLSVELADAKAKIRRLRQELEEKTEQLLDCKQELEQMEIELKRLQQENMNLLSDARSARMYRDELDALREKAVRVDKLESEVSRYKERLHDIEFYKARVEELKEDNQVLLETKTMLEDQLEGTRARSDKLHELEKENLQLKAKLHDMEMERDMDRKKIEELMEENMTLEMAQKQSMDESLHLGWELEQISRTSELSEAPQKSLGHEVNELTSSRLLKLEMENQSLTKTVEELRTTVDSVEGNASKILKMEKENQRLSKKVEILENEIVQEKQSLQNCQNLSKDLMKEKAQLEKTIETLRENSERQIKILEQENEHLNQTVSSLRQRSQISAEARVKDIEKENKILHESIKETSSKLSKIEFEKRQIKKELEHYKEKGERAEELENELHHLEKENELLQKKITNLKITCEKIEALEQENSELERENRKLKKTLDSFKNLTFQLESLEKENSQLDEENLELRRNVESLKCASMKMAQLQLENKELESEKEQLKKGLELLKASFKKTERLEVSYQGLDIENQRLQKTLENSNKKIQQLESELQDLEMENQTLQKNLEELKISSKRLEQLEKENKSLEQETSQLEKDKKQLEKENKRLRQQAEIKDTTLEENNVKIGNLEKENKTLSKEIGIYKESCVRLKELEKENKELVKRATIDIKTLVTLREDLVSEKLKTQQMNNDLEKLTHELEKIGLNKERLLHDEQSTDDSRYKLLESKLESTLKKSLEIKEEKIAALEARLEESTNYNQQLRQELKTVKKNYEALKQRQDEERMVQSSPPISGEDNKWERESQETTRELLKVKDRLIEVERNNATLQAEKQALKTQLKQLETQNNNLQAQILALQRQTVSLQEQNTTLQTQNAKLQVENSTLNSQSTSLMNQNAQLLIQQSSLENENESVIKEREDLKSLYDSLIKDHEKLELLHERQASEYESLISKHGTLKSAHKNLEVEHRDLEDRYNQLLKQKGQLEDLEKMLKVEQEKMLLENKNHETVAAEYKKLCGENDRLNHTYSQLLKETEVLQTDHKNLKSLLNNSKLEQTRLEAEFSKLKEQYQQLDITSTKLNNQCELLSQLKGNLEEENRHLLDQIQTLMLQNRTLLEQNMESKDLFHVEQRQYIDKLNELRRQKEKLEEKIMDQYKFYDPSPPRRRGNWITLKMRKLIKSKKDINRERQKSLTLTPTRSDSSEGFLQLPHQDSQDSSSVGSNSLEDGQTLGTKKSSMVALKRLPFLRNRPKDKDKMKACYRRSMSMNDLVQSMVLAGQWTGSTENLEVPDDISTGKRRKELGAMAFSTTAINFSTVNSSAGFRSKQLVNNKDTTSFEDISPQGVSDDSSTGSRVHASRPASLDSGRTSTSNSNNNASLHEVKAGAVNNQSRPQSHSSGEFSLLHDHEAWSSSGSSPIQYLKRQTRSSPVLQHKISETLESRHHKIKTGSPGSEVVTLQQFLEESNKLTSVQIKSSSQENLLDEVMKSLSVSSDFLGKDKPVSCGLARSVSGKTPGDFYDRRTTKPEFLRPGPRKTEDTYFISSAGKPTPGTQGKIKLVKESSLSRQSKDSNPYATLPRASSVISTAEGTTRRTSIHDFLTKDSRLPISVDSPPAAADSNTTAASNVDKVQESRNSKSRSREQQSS

“HA-NOD2 (wild type) (from UniProt Q9HC29 1-1040) (natural protein)”: the suppression by MDP pretreatment (10 μg/mL) of LPS (100 ng/mL)-induced NF-κB activation, luciferase reporter assay in HeLa cells with NOD2-WT is 65 % protection. As for “HA-NOD2 G908R (from UniProt Q9HC29 1-1040) (natural protein)”, the suppression by MDP pretreatment (10 μg/mL) of LPS (100 ng/mL)-induced NF-κB activation, luciferase reporter assay in HeLa cells with NOD2 G908R is 7 % protection. On to “HA-NOD2 1007fs (from UniProt Q9HC29 1-1040) (natural protein)”, for which the suppression by MDP pretreatment (10 μg/mL) of LPS (100 ng/mL)-induced NF-κB activation, luciferase reporter assay in HeLa cells with NOD2-1007fs was determined as 20 % protection. For “HA-NOD2 R702W (from UniProt Q9HC29 1-1040) (natural protein)”, the suppression by MDP pretreatment (10 μg/mL) of LPS (100 ng/mL)-induced NF-κB activation, luciferase reporter assay in HeLa cells with NOD2 R702W turned out to be 45 % protection.
